Values quoted from earlier work, collected in publication PMC8687316.

Molecular target: p53 (Homo sapiens) (UniProt P04637)
Sequence (P04637 whole entry): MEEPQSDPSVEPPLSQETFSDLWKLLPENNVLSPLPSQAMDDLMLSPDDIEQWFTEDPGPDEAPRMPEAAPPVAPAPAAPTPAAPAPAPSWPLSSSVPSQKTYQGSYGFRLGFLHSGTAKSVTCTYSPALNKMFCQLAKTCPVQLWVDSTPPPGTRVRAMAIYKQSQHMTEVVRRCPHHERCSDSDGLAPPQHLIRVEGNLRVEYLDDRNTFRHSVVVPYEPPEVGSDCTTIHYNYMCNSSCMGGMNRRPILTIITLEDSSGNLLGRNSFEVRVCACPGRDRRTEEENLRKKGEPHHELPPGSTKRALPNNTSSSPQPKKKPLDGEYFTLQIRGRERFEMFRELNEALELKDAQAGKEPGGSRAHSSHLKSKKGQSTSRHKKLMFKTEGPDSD

Chain of Mdm2 (Q00987 whole entry): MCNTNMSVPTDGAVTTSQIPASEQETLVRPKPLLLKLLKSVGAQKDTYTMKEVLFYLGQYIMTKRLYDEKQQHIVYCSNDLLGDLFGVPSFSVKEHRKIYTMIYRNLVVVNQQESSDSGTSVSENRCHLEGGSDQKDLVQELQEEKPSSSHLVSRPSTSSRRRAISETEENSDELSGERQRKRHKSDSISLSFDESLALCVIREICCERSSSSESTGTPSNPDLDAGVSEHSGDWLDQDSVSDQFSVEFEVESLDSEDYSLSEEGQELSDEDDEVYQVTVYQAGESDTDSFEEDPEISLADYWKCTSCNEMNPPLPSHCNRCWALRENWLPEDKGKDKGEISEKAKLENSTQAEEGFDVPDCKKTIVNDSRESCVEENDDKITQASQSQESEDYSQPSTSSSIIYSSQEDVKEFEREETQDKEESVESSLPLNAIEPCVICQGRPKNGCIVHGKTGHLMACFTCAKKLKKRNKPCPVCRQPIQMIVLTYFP

## Mdm2 (from UniProt Q00987)
  Kd: 1.44 nM
